Results on 32 sequences are retold here after the Immune Epitope Database (IEDB).

Among the targets are HLA-A*03:01; HLA-A*33:01; HLA-A*31:01; HLA-A*11:01; HLA-A*68:01.
Assay in all cases: IEDB peptide-MHC binding, purified MHC/competitive/radioactivity; filed as Kd, often an IC50 or EC50 that approximates it; ≥ and ≤ were set here for values at or beyond the usual limits of such assays
Where [1] appears, read: source organism: Vaccinia virus WR.
The mark [2] stands for this setting: source organism: SARS coronavirus Tor2.
The mark [3] stands for this setting: source organism: Lymphocytic choriomeningitis virus (strain Armstrong).
Where [4] appears, read: source organism: Dengue virus 2 Peru/IQT2913/1996.
Where [5] appears, read: source organism: Vaccinia virus LC16M8.
[6] abbreviates: source organism: Dengue virus 1 Brazil/97-11/1997.
Setting [7] is: source organism: Dengue virus 2 Jamaica/1409/1983.
Setting [8] is: source organism: Dengue virus 4 Philippines/H241/1956.

As to EMVDELVTRK, the Kd in the assay with HLA-A*03:01 (setting [1]) was no less than 70100 nM; in the assay with HLA-A*33:01 (setting [1]) it was no less than 70000 nM; in the assay with HLA-A*31:01 (setting [1]), no less than 70000 nM; with HLA-A*11:01 (setting [1]), 8710 nM; in the assay with HLA-A*68:01 (setting [1]), 1210 nM.
As for YLRNYMVIK, the Kd with HLA-A*03:01 (setting [1]) was 1.34 nM; with HLA-A*33:01 (setting [1]), 930 nM; in the assay with HLA-A*31:01 (setting [1]), 35 nM; with HLA-A*11:01 (setting [1]) it was 897 nM; with HLA-A*68:01 (setting [1]) it was 1670 nM.
For the sequence TQVLKTMSLY, the Kd with HLA-A*03:01 (setting [2]) is 185 nM; with HLA-A*33:01 (setting [2]) it was no less than 27600 nM; in the assay with HLA-A*31:01 (setting [2]), 9420 nM; in the assay with HLA-A*11:01 (setting [2]), 2670 nM; with HLA-A*68:01 (setting [2]), 10300 nM.
As to GVIADYNYK, the Kd amounted to 23.8 nM with HLA-A*03:01 (setting [2]); 4910 nM with HLA-A*33:01 (setting [2]); 126 nM with HLA-A*31:01 (setting [2]); 5.97 nM with HLA-A*11:01 (setting [2]); 72 nM with HLA-A*68:01 (setting [2]).
For the sequence NYSKFWYLEH, the Kd with HLA-A*03:01 (setting [3]) is no less than 70000 nM; with HLA-A*33:01 (setting [3]), 300 nM; with HLA-A*31:01 (setting [3]), 5840 nM; with HLA-A*11:01 (setting [3]), no less than 69700 nM; with HLA-A*68:01 (setting [3]) it was no less than 70100 nM.
Turning to KSKNINIEVK, the Kd was 305 nM in the assay with HLA-A*03:01 (setting [1]); no less than 70000 nM with HLA-A*33:01 (setting [1]); 1070 nM with HLA-A*31:01 (setting [1]); 568 nM with HLA-A*11:01 (setting [1]); 13300 nM with HLA-A*68:01 (setting [1]).
The corresponding values for KSSSIDVDKR are 2630 nM, 8180 nM, 84.4 nM, 550 nM and 17 nM.
As for FVCKHSMVDR, the results for the equilibrium dissociation constant (Kd) with HLA-A*33:01 (setting [4]), with HLA-A*31:01 (setting [4]) and with HLA-A*68:01 (setting [4]) were 122 nM, 117 nM and 1050 nM, respectively.
On to VTYVPSQER, for which the Kd came to 3270 nM with HLA-A*03:01 (setting [2]); 341 nM with HLA-A*33:01 (setting [2]); 23.6 nM with HLA-A*31:01 (setting [2]); 883 nM with HLA-A*11:01 (setting [2]); 1130 nM in the assay with HLA-A*68:01 (setting [2]).
Regarding TTKDYFSFKK, the dissociation constant (Kd) in the assay with HLA-A*03:01 (setting [1]) was 31.3 nM; with HLA-A*33:01 (setting [1]) it was 1330 nM; in the assay with HLA-A*31:01 (setting [1]) it was 96.4 nM; in the assay with HLA-A*11:01 (setting [1]), 1.25 nM; with HLA-A*68:01 (setting [1]), 0.556 nM.
The like results for VSYEVFDDY were, in that order, no less than 37100 nM, 19100 nM, no less than 77900 nM, 134 nM and 1570 nM.
The like results for NTPLHIVCSK were, in that order, 32.4 nM, 7190 nM, 233 nM, 147 nM and 10.8 nM.
STNLCTHSFR: the Kd was 297 nM with HLA-A*03:01 (setting [2]); 8.87 nM with HLA-A*33:01 (setting [2]); 0.941 nM with HLA-A*31:01 (setting [2]); 10.6 nM with HLA-A*11:01 (setting [2]); 6.19 nM with HLA-A*68:01 (setting [2]).
For the sequence LFASADNHPK, the Kd in the assay with HLA-A*03:01 (setting [5]) is 399 nM; in the assay with HLA-A*33:01 (setting [5]), 9860 nM; with HLA-A*31:01 (setting [5]), 9330 nM; with HLA-A*11:01 (setting [5]) it was 85.9 nM; with HLA-A*68:01 (setting [5]), 264 nM.
As to GSTAEQLSK, the Kd is 307 nM with HLA-A*03:01 (setting [1]); no less than 77700 nM in the assay with HLA-A*33:01 (setting [1]); no less than 77900 nM in the assay with HLA-A*31:01 (setting [1]); 14 nM in the assay with HLA-A*11:01 (setting [1]); no less than 43000 nM in the assay with HLA-A*68:01 (setting [1]).
On to KSEFNTYKR, for which, in the assay with HLA-A*31:01 (setting [6]), the Kd amounted to 1340 nM.
As for WFLKSGAVVK, the Kd came to 11 nM with HLA-A*03:01 (setting [1]); 4410 nM with HLA-A*33:01 (setting [1]); 7630 nM with HLA-A*31:01 (setting [1]); 116 nM with HLA-A*11:01 (setting [1]); 191 nM with HLA-A*68:01 (setting [1]).
In the case of MWTLMYFHRR, the Kd was found to be 29.8 nM with HLA-A*33:01 (setting [7]) and 33.6 nM with HLA-A*31:01 (setting [7]).
Regarding QSADASTFLK, the Kd in the assay with HLA-A*03:01 (setting [2]) stood at 348 nM; with HLA-A*33:01 (setting [2]), 5290 nM; with HLA-A*31:01 (setting [2]), 1020 nM; in the assay with HLA-A*11:01 (setting [2]), 10.2 nM; in the assay with HLA-A*68:01 (setting [2]) it was 49.4 nM.
Turning to KIVDHIVMY, the Kd is 17.9 nM with HLA-A*03:01 (setting [1]); no less than 24800 nM with HLA-A*33:01 (setting [1]); 11800 nM with HLA-A*31:01 (setting [1]); 92.2 nM with HLA-A*11:01 (setting [1]); 7980 nM with HLA-A*68:01 (setting [1]).
The like results for ITPDDGLGLR were, in that order, no less than 70100 nM, 9910 nM, 11600 nM, 16200 nM and 69.2 nM.
Take ITVNPIVTEK: the Kd in the assay with HLA-A*03:01 (setting [7]) is 24.1 nM; in the assay with HLA-A*11:01 (setting [7]) it was 69.2 nM; in the assay with HLA-A*68:01 (setting [7]), 154 nM.
With IAVSTANIFR, the Kd with HLA-A*33:01 (setting [8]) turned out to be 1050 nM; in the assay with HLA-A*68:01 (setting [8]), 9.46 nM.
As for RFWDLVHRER, the values for the Kd with HLA-A*33:01 (setting [6]) and with HLA-A*31:01 (setting [6]) were 19.7 nM and no less than 49800 nM, respectively.
Take ITVDDDGTMR: in the assay with HLA-A*68:01 (source organism: Dengue virus 3 Martinique/1243/1999), the Kd came to 77.3 nM.
On to MLNILNGRKR, for which the Kd with HLA-A*31:01 (setting [8]) amounted to 17.3 nM.
AVLMHKGKR: in the assay with HLA-A*31:01 (setting [7]), the dissociation constant Kd amounted to 64.7 nM.
ISIMIEEVMR: the Kd with HLA-A*68:01 (source organism: Dengue virus 1 Singapore/S275/1990) came to 82.3 nM.
Turning to TLFGPEREK, in the assay with HLA-A*03:01 (setting [8]), the Kd was determined as 85.9 nM.
Consider AIKILTGFRK, for which the values for the Kd in the assay with HLA-A*03:01 (setting [8]) and with HLA-A*11:01 (setting [8]) were 103 nM and 1760 nM, respectively.
As to TFHTMWHVTR, the values for the Kd with HLA-A*33:01 (setting [7]) and with HLA-A*31:01 (setting [7]) were 7.95 nM and 19.1 nM, respectively.
For the sequence AVILQNAWK, in the assay with HLA-A*11:01 (setting [7]), the Kd worked out at 128 nM.
